Measurements from patent publication US20090215689A1 (TECNOGEN S P A, published 2009).
Values belong to the binder of their own block, whether it stands above or below them.

How the values were obtained:
[1] = biological target: T1, Human recombinant FGF2 (Fibroblast growth factor-2) (human, UniProt P09038 134-288, limits assumed); test: solid phase assay: peptide-coated wells (200 µg/well), FGF2 80 nM, detection with anti-FGF2 antibody
Protocol: (§1) Then, wells were overcoated for 2 hours at room temperature with 5% dry milk in coating buffer. […] Then, 100 μl/well of the chromogen substrate 2,29-azinobis(3-ethylbenzthiazolinesulfonic acid) were added. Absorbance values were read at 405 nm in an automatic ELISA reader.

[2] = biological target: T1, Human recombinant FGF2 (Fibroblast …); test: as above; remark: listed apart in the source
Protocol: (§2) The response was recorded at the end of injection and plotted as a function of the antagonist concentration.
as §1

[3] = biological target: T1, Human recombinant FGF2 (Fibroblast …); test: SPR competition: FGF2 0.8 µM over immobilized PTX3 with the peptide in the mobile phase
Protocol: The response was recorded at the end of injection and plotted as a function of the antagonist concentration. […] The response was recorded at the end of injection and plotted as a function of the antagonist concentration.
(§3) A BIAcore X apparatus (BIAcore Inc, Piscataway, N.J.) was used.

[4] = biological target: T1, Human recombinant FGF2 (Fibroblast …); test: SPR competition: competitor with FGF2 0.8 µM in the mobile phase over immobilized PTX3
Description: as §3

[5] = biological target: T1, Human recombinant FGF2 (Fibroblast …); test: SPR competition (printed as ID50): competitor with FGF2 0.8 µM in the mobile phase over immobilized PTX3
Protocol: as §2, §3

T1 sequence (P09038 134-288 limits assumed): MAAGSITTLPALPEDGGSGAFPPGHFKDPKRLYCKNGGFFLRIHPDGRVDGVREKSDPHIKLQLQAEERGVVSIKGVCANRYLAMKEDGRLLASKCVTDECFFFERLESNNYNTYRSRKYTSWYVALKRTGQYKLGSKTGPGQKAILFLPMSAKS

Binder: DKLFIMLENSQMRERMLLQATDDVLRGEL [synthetic peptide PTX3(57-85)]
binding result [1]: no binding (tested: FGF2 80 nM)

Binder: DNEIDNGLHPTEDPTPCDCGQEHSEWDKLF [synthetic peptide PTX3(31-60)]
binding result [1]: no binding (tested: FGF2 80 nM)

Binder: RGELQRLREELGRLAESLAR [synthetic peptide PTX3(82-101)]
binding result [2]: no binding (tested: FGF2 80 nM)

Second part, the binder after the results:

binding result [3]: no binding (tested: about 3000 µM)
Binder: RGELQRLREELGRLA [synthetic peptide PTX3(82-96)]

fold lower potency than free full length PTX3 [4]: 30 fold
IC50 [5]: 30 µM
B1: synthetic peptide PTX3(82-110) (peptide)
peptide: RGELQRLREELGRLAESLARPCAPGAPAE
notes: also called parental peptide PTX3(82-110)
